From PMC3246890 (The Journal of Cell Biology, 2011) come the findings set out here.

This data set concerns the molecule itself. In words: bead aggregation assay.

B1: NcadEC-Fc (secreted ectodomain of zebrafish N-cadherin fused to the Fc region of human IgG) (Fc fusion, UniProt Q90275 147-711, looked up)
chain: DWVIPPVNVLENSRKQFPEELVKIQSDKDKSNTLRYSVTGPGADQNPTGLFIIDPISGLLSVTKPLDREHIPNFHLRAHAVDINGNQMENPIDIIINVIDMNDNRPEFTHQIWNGTVDEGAKPGTFVMTVTSQDKDDPNTANGMLRYKILSQTPESPSSNMFTINNKTGKIITVAAGLDREKVPQYTLIIQATDMEGNPTYGLSNTATAVIRLLDVNDNAPEFTRETFHGEVPENRVNVIVTNLTVTDKDEPGTPAWNAVYRIISGDPTGRFSIPTDPVTNEGLVTVVKPVDFEMNRSFMLTVVADNEVPLASGIHRTRQSTATVSIRVIDVNESPNFDPNPKQIKLEEGLPQWSMLTTFTAHDPDRYMQQTISYSKLYDPANWLEIDPNNGRISTIAVLDRESPYVKNNLYNATFMASDNGVPRASGTGTLQIYLLDINDNAPRVFPQEAEVCERPEPNAINITAVDGDLNPNAGPYAFELPNRPSDIRRNWTLTRISGDHAQLSLKISYLESGIYELPISITDSGNLPMSNTTYLRIKVCQCDHHGDCVDMERIMAAGLGTGA
Regarding B1, the binding result is on record as “binds”.
